Data from EP4667494A2 (Fundación Instituto de Investigación Sanitaria Fundación …, dated 2025).
Where a chain is given by its changes, count along the chain named. Blank lines part the entries; values can stand above or below the binder they belong to.

Target: T1, CD79b (UniProt P40259 29-229, limits assumed)
T1 construct: whole, on cells; Endogenous CD79b on human lymphoma cell lines
T1 sequence (looked up): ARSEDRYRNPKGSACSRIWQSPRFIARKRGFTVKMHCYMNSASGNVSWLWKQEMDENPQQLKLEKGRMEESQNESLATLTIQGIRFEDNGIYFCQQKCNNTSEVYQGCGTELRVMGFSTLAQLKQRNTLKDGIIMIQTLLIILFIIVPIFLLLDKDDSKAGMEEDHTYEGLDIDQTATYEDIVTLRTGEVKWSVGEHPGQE
Test: flow cytometry on NHL cell lines Ramos and Daudi

- binding result: binds
B1: CARLY3 monoclonal murine antibody against CD79b (antibody, V domains shown)
VH: QVQLQQPGAELVRPGASLKLSCKTSGYTFTDYWMNWVKQRPGQGLEWIGMIDPSDSETHYNQMFKDKATLTVDKSSSTAYMQLSSLTSEDSAVYYCTRNLNYWGQGTTLTVSS
VL: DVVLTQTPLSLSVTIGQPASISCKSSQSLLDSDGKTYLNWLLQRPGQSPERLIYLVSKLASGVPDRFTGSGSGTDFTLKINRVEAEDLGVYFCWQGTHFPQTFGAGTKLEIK
notes: Murine monoclonal from a hybridoma; it was detected with anti-mouse IgG-Alexa647 in confocal microscopy

- binding result: binds
B2: CARLY1 monoclonal murine antibody against CD79b (antibody, V domains shown)
VH: QVQLQQPGAELVRPGASVKLSCKASGYTFTSYWMNWVKQRPGQGLEWIGMIDPSDSETHYNQMFRDKATLTVDKPSNTAYMQLSRLTSEDSAVYYCARALGYWGQGTSVTVSS
VL: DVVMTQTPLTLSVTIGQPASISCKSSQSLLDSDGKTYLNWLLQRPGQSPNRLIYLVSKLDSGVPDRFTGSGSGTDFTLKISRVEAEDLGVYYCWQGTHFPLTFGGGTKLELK
notes: Murine monoclonal from a hybridoma, made by an external service; The variable domains are tied to the name CARLY 1 in the definition section

- binding result: binds
B3: CARLY2 monoclonal murine antibody against CD79b (antibody, V domains shown)
VH: B2 VH with S31T, R65K, P75S, N77T, R85S, A99T, G101S, S108L, S113A
VL: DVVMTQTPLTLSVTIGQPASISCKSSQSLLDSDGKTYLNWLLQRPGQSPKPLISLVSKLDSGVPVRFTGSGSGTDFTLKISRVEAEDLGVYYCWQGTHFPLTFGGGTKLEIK
notes: as for B1
